This is an account of results in article doi:10.1101/2020.11.13.381095 (bioRxiv, 2020).

Assay in all cases: SPR
In general terms: In SPR one partner is held on a chip, and binding of the other changes the refractive index at the surface.

Assay [1] deals with T1, adrenodoxin (human, UniProt P10109 61-184).
T1 sequence (looked up): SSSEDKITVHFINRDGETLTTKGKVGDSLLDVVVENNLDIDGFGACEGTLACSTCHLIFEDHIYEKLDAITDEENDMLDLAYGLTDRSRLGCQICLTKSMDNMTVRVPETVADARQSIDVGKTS

Assay [2] deals with T1, adrenodoxin. The source holds these as a separate data set.
Assay [3] deals with T1, adrenodoxin. The source holds these as a separate data set.
Assay [4] deals with T1, adrenodoxin. The source holds these as a separate data set.
In assay [5] the target is T1, adrenodoxin. The source holds these as a separate data set.
Assay [6] has as its target T1, adrenodoxin. The source holds these as a separate data set.
Assay [7] has as its target T1, adrenodoxin. The source holds these as a separate data set.
Assay [8] has as its target T1, adrenodoxin. This is another data set of the same source.
Assay [9] has as its target T1, adrenodoxin. This is another data set of the same source.

B1: cytochrome P450 CYP11B1 (11ß-hydroxylase) (enzyme, human)
chain: VPRTVLPFEAMPRRPGNRWLRLLQIWREQGYEDLHLEVHQTFQELGPIFRYDLGGAGMVCVMLPEDVEKLQQVDSLHPHRMSLEPWVAYRQHRGHKCGVFLLNGPEWRFNRLRLNPEVLSPNAVQRFLPMVDAVARDFSQALKKKVLQNARGSLTLDVQPSIFHYTIEASNLALFGERLGLVGHSPSSASLNFLHALEVMFKSTVQLMFMPRSLSRWTSPKVWKEHFEAWDCIFQYGDNCIQKIYQELAFSRPQQYTSIVAELLLNAELSPDAIKANSMELTAGSVDTTVFPLLMTLFELARNPNVQQALRQESLAAAASISEHPQKATTELPLLRAALKETLRLYPVGLFLERVASSDLVLQNYHIPAGTLVRVFLYSLGRNPALFPRPERYNPQRWLDIRGSGRNFYHVPFGFGMRQCLGRRLAEAEMLLLLHHVLKHLQVETLTQEDIKMVYSFILRPSMFPLLTFRAIN
For the molecule B1, in the assay with adrenodoxin [1], the “fold increase of Kd with 11-deoxycorticosterone against ligand-free” value was 2.4 fold, the “fold increase of koff with 11-deoxycorticosterone against ligand-free” value came to 4.4 fold and the “fold increase of kon with 11-deoxycorticosterone against ligand-free” value was approximately 2 fold. Besides, in the assay with adrenodoxin [2], the “fold increase of koff with 11-deoxycortisol against ligand-free” value was approximately 3.2 fold and the “fold increase of kon with 11-deoxycortisol against ligand-free” value was found to be 4 fold.

B2: cytochrome P450 CYP11A1 (cholesterol side chain cleavage enzyme) (enzyme, human)
chain: STRSPRPFNEIPSPGDNGWLNLYHFWRETGTHKVHLHHVQNFQKYGPIYREKLGNVESVYVIDPEDVALLFKSEGPNPERFLIPPWVAYHQYYQRPIGVLLKKSAAWKKDRVALNQEVMAPEATKNFLPLLDAVSRDFVSVLHRRIKKAGSGNYSGDISDDLFRFAFESITNVIFGERQGMLEEVVNPEAQRFIDAIYQMFHTSVPMLNLPPDLFRLFRTKTWKDHVAAWDVIFSKADIYTQNFYWELRQKGSVHHDYRGILYRLLGDSKMSFEDIKANVTEMLAGGVDTTSMTLQWHLYEMARNLKVQDMLRAEVLAARHQAQGDMATMLQLVPLLKASIKETLRLHPISVTLQRYLVNDLVLRDYMIPAKTLVQVAIYALGREPTFFFDPENFDPTRWLSKDKNITYFRNLGFGWGVRQCLGRRIAELEMTIFLINMLENFRVEIQHLSDVGTTFNLILMPEKPISFTFWPFNQEATQQ
On to B2, for which, in the assay with adrenodoxin [3], the “fold decrease of kon with 20S-hydroxycholesterol against ligand-free” value was 2 fold and the “fold increase of Kd with 20S-hydroxycholesterol against ligand-free” value came out at 3.1 fold. In addition, in the assay with adrenodoxin [4], the “fold decrease of kon with 25-hydroxycholesterol against ligand-free” value came to 2 fold and the “fold increase of Kd with 25-hydroxycholesterol against ligand-free” value was determined as 4.6 fold. For the same molecule, in the assay with adrenodoxin [5], the “fold increase of Kd with pregnenolone against cholesterol” value is approximately 21 fold. Moreover, in the assay with adrenodoxin [6], the “fold decrease of kon with 20R,22R-dihydroxycholesterol against ligand-free” value was determined as 2 fold, the “fold increase of Kd with 20R,22R-dihydroxycholesterol against cholesterol” value was approximately 10 fold, the “fold increase of Kd with 20R,22R-dihydroxycholesterol against ligand-free” value was approximately 3.4 fold and the “fold increase of koff with 20R,22R-dihydroxycholesterol against ligand-free” value is approximately 1.8 fold. Moreover, the “fold increase of Kd with 22R-hydroxycholesterol against cholesterol” value in the assay with adrenodoxin [7] was found to be 4 fold. Besides, in the assay with adrenodoxin [8], the “fold change of koff with cholesterol against ligand-free” value is approximately 1.5 fold and the “fold increase of kon with cholesterol against ligand-free” value came to 4 fold.

B3: cytochrome P450 CYP11B2 (aldosterone synthase) (enzyme, human, UniProt P19099 25-503, looked up)
chain: GTRAARAPRTVLPFEAMPQHPGNRWLRLLQIWREQGYEHLHLEMHQTFQELGPIFRYNLGGPRMVCVMLPEDVEKLQQVDSLHPCRMILEPWVAYRQHRGHKCGVFLLNGPEWRFNRLRLNPDVLSPKAVQRFLPMVDAVARDFSQALKKKVLQNARGSLTLDVQPSIFHYTIEASNLALFGERLGLVGHSPSSASLNFLHALEVMFKSTVQLMFMPRSLSRWISPKVWKEHFEAWDCIFQYGDNCIQKIYQELAFNRPQHYTGIVAELLLKAELSLEAIKANSMELTAGSVDTTAFPLLMTLFELARNPDVQQILRQESLAAAASISEHPQKATTELPLLRAALKETLRLYPVGLFLERVVSSDLVLQNYHIPAGTLVQVFLYSLGRNAALFPRPERYNPQRWLDIRGSGRNFHHVPFGFGMRQCLGRRLAEAEMLLLLHHVLKHFLVETLTQEDIKMVYSFILRPGTSPLLTFRAIN
As for B3, in the assay with adrenodoxin [1], the “fold increase of Kd with 11-deoxycorticosterone against ligand-free” value worked out at 11 fold and the “fold increase of koff with 11-deoxycorticosterone against ligand-free” value stood at 7 fold. Besides, in the assay with adrenodoxin [2], the “fold increase of Kd with 11-deoxycortisol against ligand-free” value came out at 4.7 fold. For the same molecule, the “fold change of Kd with corticosterone against ligand-free” value in the assay with adrenodoxin [9] was 1.7 fold.
